Measurements published in patent publication US20230383273.

Experiments:
Assay in all cases: cleavage_in_vitro
[1] = system: T1, OMNI-68 (Gemmiger sp. An50); settings: PAM NNNVTA; TXTL
T1 sequence: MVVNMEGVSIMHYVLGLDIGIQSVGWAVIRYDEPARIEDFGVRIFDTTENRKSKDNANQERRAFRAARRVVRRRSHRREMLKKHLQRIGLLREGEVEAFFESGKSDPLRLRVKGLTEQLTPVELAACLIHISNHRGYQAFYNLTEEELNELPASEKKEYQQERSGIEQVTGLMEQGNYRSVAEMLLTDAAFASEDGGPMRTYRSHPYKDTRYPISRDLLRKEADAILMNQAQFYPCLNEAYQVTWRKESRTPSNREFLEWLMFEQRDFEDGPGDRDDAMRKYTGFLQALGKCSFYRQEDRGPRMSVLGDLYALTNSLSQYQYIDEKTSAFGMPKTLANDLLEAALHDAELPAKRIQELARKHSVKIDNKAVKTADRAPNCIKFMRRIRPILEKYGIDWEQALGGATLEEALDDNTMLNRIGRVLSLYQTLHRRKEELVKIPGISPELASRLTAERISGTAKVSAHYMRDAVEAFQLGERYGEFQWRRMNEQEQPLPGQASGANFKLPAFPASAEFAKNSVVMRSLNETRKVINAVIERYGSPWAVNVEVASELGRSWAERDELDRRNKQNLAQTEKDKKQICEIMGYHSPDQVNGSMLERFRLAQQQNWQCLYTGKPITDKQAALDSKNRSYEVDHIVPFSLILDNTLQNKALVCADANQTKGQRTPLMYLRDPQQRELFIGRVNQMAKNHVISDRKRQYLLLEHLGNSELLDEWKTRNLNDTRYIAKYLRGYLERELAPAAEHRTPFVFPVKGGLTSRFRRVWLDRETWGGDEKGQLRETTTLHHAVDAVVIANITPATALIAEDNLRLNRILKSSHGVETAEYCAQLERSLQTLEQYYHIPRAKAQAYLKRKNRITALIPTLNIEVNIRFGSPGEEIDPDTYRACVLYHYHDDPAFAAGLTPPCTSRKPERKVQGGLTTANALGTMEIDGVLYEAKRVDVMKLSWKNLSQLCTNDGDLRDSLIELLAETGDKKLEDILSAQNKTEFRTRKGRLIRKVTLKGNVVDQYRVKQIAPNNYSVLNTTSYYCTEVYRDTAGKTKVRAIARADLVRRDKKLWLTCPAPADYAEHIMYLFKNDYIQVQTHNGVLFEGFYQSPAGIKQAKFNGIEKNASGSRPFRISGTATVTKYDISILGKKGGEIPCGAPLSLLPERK

[2] = system: T2, OMNI-75 (Lactococcus sp. 1JSPR-7); settings: PAM NNGNRA; TXTL
T2 sequence: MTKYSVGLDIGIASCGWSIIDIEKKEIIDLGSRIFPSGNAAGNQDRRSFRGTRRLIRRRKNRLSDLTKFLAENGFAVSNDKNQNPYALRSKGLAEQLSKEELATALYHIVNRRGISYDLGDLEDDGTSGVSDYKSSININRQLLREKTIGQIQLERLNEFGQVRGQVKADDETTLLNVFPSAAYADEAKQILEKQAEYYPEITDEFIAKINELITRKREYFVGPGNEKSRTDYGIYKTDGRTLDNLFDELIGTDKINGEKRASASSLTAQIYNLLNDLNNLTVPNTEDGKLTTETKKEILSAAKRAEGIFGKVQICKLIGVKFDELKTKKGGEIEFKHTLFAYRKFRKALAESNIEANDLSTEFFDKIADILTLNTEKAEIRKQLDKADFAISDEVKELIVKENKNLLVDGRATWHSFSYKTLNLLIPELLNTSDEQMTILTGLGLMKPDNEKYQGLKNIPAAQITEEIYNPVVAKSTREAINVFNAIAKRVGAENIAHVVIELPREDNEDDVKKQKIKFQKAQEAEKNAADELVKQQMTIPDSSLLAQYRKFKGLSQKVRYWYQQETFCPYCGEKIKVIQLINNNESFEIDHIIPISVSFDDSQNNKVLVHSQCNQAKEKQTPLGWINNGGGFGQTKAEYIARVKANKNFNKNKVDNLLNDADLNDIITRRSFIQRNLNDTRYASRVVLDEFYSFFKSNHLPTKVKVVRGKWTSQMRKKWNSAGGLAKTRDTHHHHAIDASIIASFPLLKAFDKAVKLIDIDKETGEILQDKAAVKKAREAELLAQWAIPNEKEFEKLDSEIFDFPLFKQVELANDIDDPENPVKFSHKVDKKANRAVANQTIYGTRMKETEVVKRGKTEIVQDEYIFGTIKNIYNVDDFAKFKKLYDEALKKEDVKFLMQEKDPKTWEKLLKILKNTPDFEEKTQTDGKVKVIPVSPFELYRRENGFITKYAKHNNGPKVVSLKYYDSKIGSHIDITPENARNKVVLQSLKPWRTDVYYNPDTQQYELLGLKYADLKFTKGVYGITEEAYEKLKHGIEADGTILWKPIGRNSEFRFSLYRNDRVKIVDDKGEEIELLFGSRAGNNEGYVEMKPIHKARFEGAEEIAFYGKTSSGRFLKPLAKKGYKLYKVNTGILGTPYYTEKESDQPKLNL

[3] = system: T3, OMNI-84 (Porphyrobacter donghaensis); settings: PAM NNNNGCAA; TXTL
T3 sequence: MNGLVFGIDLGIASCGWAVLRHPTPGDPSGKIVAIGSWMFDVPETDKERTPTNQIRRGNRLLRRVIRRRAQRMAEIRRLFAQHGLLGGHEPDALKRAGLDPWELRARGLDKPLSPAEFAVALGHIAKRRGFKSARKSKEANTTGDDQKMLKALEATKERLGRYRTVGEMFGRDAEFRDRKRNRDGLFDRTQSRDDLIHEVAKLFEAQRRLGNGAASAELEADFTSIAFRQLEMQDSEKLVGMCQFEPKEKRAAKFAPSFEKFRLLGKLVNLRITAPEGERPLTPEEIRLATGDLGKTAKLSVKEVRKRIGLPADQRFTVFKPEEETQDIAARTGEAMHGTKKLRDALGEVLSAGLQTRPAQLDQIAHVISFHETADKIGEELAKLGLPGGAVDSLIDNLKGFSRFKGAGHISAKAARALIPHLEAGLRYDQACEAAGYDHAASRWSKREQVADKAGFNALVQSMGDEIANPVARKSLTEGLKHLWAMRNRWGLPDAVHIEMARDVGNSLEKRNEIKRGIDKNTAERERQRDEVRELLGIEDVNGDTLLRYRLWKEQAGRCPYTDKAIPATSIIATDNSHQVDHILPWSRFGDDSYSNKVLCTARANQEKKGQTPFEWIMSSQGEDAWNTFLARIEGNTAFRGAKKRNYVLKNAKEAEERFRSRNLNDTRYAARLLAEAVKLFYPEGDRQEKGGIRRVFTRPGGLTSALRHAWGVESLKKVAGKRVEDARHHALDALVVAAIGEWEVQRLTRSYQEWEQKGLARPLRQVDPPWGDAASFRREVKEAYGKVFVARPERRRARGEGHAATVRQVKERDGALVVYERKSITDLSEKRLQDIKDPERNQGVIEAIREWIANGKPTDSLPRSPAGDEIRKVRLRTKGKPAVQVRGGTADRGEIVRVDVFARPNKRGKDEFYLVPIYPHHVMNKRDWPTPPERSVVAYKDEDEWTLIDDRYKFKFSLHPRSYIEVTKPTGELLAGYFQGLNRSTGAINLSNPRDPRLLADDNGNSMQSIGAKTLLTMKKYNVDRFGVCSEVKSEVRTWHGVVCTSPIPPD

[4] = system: T4, OMNI-78 (Notoacmeibacter marinus); settings: PAM NRRNAT; TXTL
T4 sequence: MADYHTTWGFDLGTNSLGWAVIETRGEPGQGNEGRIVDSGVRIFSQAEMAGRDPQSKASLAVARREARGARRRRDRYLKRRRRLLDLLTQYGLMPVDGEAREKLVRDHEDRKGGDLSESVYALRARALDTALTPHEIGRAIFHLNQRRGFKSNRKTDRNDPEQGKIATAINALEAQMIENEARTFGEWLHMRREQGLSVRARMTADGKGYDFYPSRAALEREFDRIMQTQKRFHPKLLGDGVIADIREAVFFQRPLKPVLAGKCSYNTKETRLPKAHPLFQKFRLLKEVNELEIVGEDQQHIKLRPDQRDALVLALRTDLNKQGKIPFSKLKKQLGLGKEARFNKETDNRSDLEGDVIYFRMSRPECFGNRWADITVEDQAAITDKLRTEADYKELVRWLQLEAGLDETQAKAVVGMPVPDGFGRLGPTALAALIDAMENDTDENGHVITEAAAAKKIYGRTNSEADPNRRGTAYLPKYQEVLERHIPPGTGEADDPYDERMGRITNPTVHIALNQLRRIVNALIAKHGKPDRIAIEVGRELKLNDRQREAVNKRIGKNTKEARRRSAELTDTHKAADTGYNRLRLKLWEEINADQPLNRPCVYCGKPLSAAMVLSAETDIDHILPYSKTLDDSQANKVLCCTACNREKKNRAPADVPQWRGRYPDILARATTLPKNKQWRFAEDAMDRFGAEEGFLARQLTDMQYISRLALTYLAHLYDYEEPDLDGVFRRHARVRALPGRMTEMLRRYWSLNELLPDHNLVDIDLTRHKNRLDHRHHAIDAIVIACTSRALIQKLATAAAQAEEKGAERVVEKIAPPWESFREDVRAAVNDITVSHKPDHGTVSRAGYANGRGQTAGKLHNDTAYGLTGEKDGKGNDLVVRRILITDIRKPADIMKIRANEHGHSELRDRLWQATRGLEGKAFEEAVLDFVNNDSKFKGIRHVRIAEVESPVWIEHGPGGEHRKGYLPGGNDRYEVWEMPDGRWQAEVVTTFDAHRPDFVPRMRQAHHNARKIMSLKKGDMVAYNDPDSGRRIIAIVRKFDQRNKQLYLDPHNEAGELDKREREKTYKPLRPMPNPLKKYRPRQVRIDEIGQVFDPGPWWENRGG

**Q.** With “GGAAGAGCAGAGCCUUGGUCUCGUUUUGGUUCUCUGAUGGGAAACAUCAGAAGUUCUAAGAUAAGGCUUUACGCCGCAGGGUAUGGUGGUAUCCCGAACAAUCCACCGUUUCAGGAAUAGCGCAGCACUGGUUUCCAGUGCUGUUUUU / GGAAGAGCAGAGCCTTGGTCTCNNNNNNNN / NNNNNNNNGAGACCAAGGCTCTGCTCTTCC” as the sequence, how does the activity (1-depletion score) [1] read?
**A.** The activity (1-depletion score) was 0.88.

**Q.** Which activity (1-depletion score) [2] does the source give for “GGAAGAGCAGAGCCUUGGUCUCGUUUUUGUACUCUCAAGAAAUUGAGAAUCUACAAGGAUAAGGCUUUAUGCCGAAAUCAUUAACUCGCCUUUGGGCGAGUUUUUU / GGAAGAGCAGAGCCTTGGTCTCNNNNNNNN / NNNNNNNNGAGACCAAGGCTCTGCTCTTCC” here?
**A.** The activity (1-depletion score) was 0.93.

**Q.** With “GGAAGAGCAGAGCCUUGGUCUCGCCGUGGUUUCCCUACCGAUUUGCCCAUGGUAGGGAAAGUUAUCGGCAAAUCGGUAGGGAAGCCACGGUAACAGAGCUUCACUGUGAAGGAUCAUCCUGAAGGGGAAAUUCCUUAUUGAAGCACUGAUACAGAGCUUCUGUAUUCAAACGACCCUUUCUGAGAUAUCAGAGAGGGUCGUUUUU / GGAAGAGCAGAGCCTTGGTCTCNNNNNNNN / NNNNNNNNGAGACCAAGGCTCTGCTCTTCC” as the sequence, how does the activity (1-depletion score) [3] read?
**A.** The activity (1-depletion score) was 0.93.

**Q.** How did the activity (1-depletion score) [4] turn out when “GGAAGAGCAGAGCCUUGGUCUCGUUGCGGUUGGCCUGCGAGAAAUCGCAGUCCAGCCGUUAACAAGCUGAGAUAUGCACCAGAUAAGGCGCUCGCUCCGGCGAGCGCUUUUUU / GGAAGAGCAGAGCCTTGGTCTCNNNNNNNN / NNNNNNNNGAGACCAAGGCTCTGCTCTTCC” was run?
**A.** Its activity (1-depletion score) is 0.9.
